Consider two molecules from patent publication EP2420255A2 (Ecole Polytechnique Federale De Lausanne (EPFL), dated 2012).

Assay [1] addresses T1, human urokinase-type plasminogen activator (UPA-LMW, from human urine, 33 kDa) (human, UniProt P00749 156-431). The assay is described as follows: enzyme inhibition of human uPA, residual activity.
Assay [2] has as its target T1, human urokinase-type plasminogen …. Briefly: enzyme inhibition, Ki.
The target in assay [3] is T2, mouse uPA (MUPA-LMW, recombinantly produced in insect cells, 31 kDa) (mouse, UniProt P06869 157-433, limits assumed).
T2 construct: also called murine uPA
The assay is described as follows: enzyme inhibition, Ki.

Assay [4] addresses T1, human urokinase-type plasminogen …. The assay is described as follows: cell-based or functional assay.
Assay [5] deals with T2, mouse uPA (MUPA-LMW, recombinantly …). The assay is described as follows: cell-based or functional assay.
Assay [6] concerns the target T3, human tPA (HTPA-TC, recombinant, 70 kDa) (human, UniProt P00750 36-562). The assay is described as follows: cell-based or functional assay.
The target in assay [7] is T4, mouse tPA (MTPA, recombinantly produced in insect cells, 70 kDa) (mouse, UniProt P11214 33-559, limits assumed). Briefly: cell-based or functional assay.
The target of assay [8] is T5, human plasmin (HPLM, from human plasma, 85 kDa) (human, UniProt P00747 97-810, limits assumed). The assay is described as follows: cell-based or functional assay.
The target of assay [9] is T6, human trypsin (HTRYP, from human pancreas, 25 kDa) (human, UniProt P07477 24-247). The assay is described as follows: cell-based or functional assay.
Assay [10] deals with T7, human plasma kallikrein (IHPKA, from human plasma, 86 kDa) (human, UniProt P03952 20-638). The assay is described as follows: cell-based or functional assay.
Assay [11] has as its target T8, human thrombin (IHT, from human plasma, 37 kDa) (human, UniProt P00734 328-622). The assay is described as follows: cell-based or functional assay.
The target of assay [12] is T9, human factor XIa (IHFXI, from human plasma, 160 kDa) (human, UniProt P03951 19-625). The assay is described as follows: cell-based or functional assay.
The target of assay [13] is T1, human urokinase-type plasminogen …. The assay is described as follows: enzyme inhibition, Ki calculated from IC50 by the Cheng-Prusoff equation, pH 7.4, 25 °C.
In assay [14] the target is T2, mouse uPA (MUPA-LMW, recombinantly …). Described as above.
The target of assay [15] is T3, human tPA (HTPA-TC, recombinant, 70 kDa). The description is as above.
Assay [16] has as its target T4, mouse tPA (MTPA, recombinantly produced …). The assay is described as above.
In assay [17] the target is T5, human plasmin (HPLM, from human plasma, …). The assay is described as above.
Assay [18] addresses T6, human trypsin (HTRYP, from human …). The assay is described as above.
Assay [19] deals with T7, human plasma kallikrein (IHPKA, from …). Described as above.
The target in assay [20] is T8, human thrombin (IHT, from human plasma, …). The assay is described as above.
Assay [21] concerns the target T9, human factor XIa (IHFXI, from human …). The description is as above.

Numbered stars: 1 amine (or outer) side, 2 acyl side, 3 side chain; on linkers, the order of the positions; unused ones are H or OH. Bridge positions count the residues as written; N and C are the ends. TBMB = c1c(C[*:1])cc(C[*:3])cc1C[*:2]

T2 sequence (P06869 157-433 limits assumed): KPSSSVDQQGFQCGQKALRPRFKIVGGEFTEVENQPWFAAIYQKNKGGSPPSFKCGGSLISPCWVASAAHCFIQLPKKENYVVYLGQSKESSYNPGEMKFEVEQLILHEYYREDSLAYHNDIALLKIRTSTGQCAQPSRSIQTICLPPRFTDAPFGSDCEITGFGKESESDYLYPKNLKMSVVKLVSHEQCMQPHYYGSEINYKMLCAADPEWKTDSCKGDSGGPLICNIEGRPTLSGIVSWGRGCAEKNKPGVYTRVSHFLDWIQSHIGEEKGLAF
T5 sequence (P00747 97-810 limits assumed): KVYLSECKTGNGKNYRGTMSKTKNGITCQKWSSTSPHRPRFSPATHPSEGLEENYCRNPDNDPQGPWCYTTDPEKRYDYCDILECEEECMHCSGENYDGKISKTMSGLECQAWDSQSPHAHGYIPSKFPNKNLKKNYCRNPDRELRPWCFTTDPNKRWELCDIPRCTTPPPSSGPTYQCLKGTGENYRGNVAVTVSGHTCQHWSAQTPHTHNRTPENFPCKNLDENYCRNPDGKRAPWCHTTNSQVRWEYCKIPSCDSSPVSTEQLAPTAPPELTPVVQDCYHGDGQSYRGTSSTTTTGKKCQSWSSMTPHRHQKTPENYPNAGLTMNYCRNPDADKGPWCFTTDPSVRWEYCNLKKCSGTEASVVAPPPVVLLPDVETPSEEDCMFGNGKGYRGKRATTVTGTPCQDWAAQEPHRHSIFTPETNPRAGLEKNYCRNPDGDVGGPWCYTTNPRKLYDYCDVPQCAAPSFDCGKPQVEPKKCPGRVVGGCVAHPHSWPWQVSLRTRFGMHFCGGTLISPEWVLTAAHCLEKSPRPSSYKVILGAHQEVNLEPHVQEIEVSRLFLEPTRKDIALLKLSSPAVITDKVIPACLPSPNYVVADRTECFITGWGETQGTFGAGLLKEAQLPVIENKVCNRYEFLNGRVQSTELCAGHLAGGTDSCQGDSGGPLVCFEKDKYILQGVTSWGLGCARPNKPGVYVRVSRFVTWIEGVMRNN
T4 sequence (P11214 33-559 limits assumed): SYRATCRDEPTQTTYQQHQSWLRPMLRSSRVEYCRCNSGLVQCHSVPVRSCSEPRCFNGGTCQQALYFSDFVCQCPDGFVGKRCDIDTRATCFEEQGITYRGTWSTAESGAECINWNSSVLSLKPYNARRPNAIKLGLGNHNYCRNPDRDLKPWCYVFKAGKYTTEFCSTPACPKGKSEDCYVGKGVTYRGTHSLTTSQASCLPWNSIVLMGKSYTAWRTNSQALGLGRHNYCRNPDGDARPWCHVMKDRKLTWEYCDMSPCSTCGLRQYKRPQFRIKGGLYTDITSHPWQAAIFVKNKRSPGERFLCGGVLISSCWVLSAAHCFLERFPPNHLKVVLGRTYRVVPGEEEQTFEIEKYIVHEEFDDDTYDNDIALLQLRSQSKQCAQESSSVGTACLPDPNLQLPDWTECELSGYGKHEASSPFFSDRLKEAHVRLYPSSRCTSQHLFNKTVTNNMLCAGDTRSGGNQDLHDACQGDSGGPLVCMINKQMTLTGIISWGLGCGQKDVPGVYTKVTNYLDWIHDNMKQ
T3 sequence (P00750 36-562 limits assumed): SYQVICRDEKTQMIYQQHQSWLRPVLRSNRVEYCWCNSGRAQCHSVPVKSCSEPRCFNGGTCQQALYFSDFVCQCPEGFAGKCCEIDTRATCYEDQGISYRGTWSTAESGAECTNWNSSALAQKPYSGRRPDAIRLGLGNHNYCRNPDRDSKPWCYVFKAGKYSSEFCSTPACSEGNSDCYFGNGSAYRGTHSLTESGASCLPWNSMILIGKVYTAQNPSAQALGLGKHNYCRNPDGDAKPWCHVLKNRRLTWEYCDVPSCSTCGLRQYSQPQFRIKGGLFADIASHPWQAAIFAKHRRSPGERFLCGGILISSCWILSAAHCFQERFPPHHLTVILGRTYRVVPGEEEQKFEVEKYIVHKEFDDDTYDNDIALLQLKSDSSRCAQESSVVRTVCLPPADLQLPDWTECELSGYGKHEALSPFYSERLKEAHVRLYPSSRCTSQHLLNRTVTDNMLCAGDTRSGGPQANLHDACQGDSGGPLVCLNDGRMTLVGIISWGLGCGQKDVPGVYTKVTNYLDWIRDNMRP
T7 sequence (P03952 20-638 limits assumed): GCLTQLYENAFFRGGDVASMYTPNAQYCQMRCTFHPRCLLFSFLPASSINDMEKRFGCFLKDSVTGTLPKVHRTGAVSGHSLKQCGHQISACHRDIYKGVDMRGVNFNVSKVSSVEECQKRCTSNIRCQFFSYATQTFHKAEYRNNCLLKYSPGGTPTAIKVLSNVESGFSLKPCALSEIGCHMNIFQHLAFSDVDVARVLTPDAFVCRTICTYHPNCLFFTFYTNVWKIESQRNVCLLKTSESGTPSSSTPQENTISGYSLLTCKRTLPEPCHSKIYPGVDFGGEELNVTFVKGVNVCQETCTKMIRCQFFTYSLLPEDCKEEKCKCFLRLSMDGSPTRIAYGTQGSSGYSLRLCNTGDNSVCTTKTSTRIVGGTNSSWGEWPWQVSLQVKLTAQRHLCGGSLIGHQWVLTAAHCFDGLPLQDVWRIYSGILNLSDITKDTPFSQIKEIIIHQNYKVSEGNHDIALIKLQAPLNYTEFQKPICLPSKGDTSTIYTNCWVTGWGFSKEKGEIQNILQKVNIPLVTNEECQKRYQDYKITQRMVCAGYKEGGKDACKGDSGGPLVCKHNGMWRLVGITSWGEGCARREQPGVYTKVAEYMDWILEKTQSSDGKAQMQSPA
T9 sequence (P03951 19-625 limits assumed): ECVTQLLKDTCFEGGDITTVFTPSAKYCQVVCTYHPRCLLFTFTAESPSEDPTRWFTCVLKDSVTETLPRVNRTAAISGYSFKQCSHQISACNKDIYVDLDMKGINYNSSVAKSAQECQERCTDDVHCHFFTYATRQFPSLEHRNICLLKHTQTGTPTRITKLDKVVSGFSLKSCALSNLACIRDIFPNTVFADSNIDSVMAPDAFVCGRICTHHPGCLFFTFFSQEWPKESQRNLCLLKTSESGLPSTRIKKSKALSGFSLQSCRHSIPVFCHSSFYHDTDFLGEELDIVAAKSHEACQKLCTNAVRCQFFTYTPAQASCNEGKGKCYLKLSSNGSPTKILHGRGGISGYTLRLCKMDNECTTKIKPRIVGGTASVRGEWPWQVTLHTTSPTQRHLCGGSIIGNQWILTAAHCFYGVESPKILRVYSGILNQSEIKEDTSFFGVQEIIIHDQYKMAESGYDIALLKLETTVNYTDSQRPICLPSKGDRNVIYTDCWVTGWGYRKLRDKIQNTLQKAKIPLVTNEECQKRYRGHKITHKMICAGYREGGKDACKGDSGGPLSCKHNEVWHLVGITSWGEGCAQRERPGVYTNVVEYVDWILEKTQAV

B1: linear UK18 peptide with serine instead of cysteine in positions 2, 9 and 16 (H-ASSRYEVDSRGRGSASG-NH2) (peptide)
peptide: H-ASSRYEVDSRGRGSASG-NH2
notes: Not conjugated to TBMB; M = 1740.0 Da; also called UK18ser
A word on the Ki: it is the equilibrium dissociation constant of an inhibitor or competing ligand from its target. Regarding B1, in assay [1], the affinity, expressed as Ki, was 5.8 µM and the “fold weaker inhibition than the TBMB-cyclised UK18 peptide” value was around 200 fold.

B2: UK18 bicyclic peptide (chemically synthesized peptide-TBMB conjugate, H-ACSRYEVDCRGRGSACG-NH2 cyclised with tris-(bromomethyl)benzene) (peptide)
peptide: H-ACSRYEVDCRGRGSACG-NH2
modifications: linker 2-9-16 via TBMB
SMILES: CC(C)[C@@H]1NC(=O)[C@H](CCC(=O)O)NC(=O)[C@H](Cc2ccc(O)cc2)NC(=O)[C@H](CCCNC(=N)N)NC(=O)[C@H](CO)NC(=O)[C@@H](NC(=O)[C@H](C)N)CSCc2cc3cc(c2)CSC[C@H](NC(=O)[C@H](CC(=O)O)NC1=O)C(=O)N[C@@H](CCCNC(=N)N)C(=O)NCC(=O)N[C@@H](CCCNC(=N)N)C(=O)NCC(=O)N[C@@H](CO)C(=O)N[C@@H](C)C(=O)N[C@H](C(=O)NCC(N)=O)CSC3
notes: Synthetic bicyclic peptide, 1903 Da after reaction with TBMB; also called clone 18; TBMB-cyclised UK18 peptide
For B2, in [2], the “fold better inhibition than of other serine proteases” value was around 1000 fold. Besides, the “fold of Ki against the Ki of human uPA” value in [3] was around 1400 fold. Also, the “IC50 (µM), residual protease activity, substrate Z-Gly-Gly-Arg-AMC” value stood at 0.047 µM in [4]; 65.5 µM in assay [5]; 87.5 µM in assay [6]; 52.5 µM in assay [7]; 54.5 µM in assay [9]; 36 µM in [11]. In assay [8], the “IC50 (µM), residual protease activity, substrate H-D-Val-Leu-Lys-AMC” value came out at 57.5 µM. For the same molecule, in [10], the “IC50 (µM), residual protease activity, substrate Z-Phe-Arg-AMC” value was determined as 47.5 µM. For the same molecule, in [12], the “IC50 (µM), residual protease activity, substrate Boc-Phe-Ser-Arg-AMC” value worked out at 63 µM. Further, the Ki in assay [13] is 0.03 µM; in assay [14], 42 µM; in assay [15] it was 56.1 µM; in [16], 33.7 µM; in assay [17], 36.9 µM; in assay [18] it was 34.9 µM. In addition, the inhibitory constant (Ki) is 30.5 µM in assay [19], 23.1 µM in assay [20] and 40.4 µM in assay [21].
